Measured values taken from the DeepSol protein solubility set.

Assay: soluble on expression in E. coli; label from the status in PepcDB or PDB records

Sequence | soluble on expression in E. coli
MANSNTQRMGTGSAILPARRRRATPRRLPKRAAHHYTPRVFSAIEPENSPMLKRSLALAAGIALSLSAALAHAETLKELKVSAIPDEAPTELLRKFKPLGAYLEKQLGMPVKFVPVADYAGVVEALAADRLDMAWLGGFTFVQARLKTGNAIPLVQREQDQQFTSKFITADPQVKSLQDLKGKTFAFGSVSSTSGSLMPRYFMQKDGIVPEQFFSRVAYSGAHDATVAWVQAGKVDAGVLNASVWQKLVDSGKVDTAKVKVFATTPTYYDYNWTVRGNLDPALAEKIKQAFLALDPAKPADKEILDLQAASRFIETNPDNYKGIEESARAAGLLK | not soluble
MAPLGTTVLLWSLLRSSPGVERVCFRARIQPWHGGLLQPLPCSFEMGLPRRRFSSEAESGSPETKKPTFMDEEVQSILTKMTGLNLQKTFKPAIQELKPPTYKLMTQAQLEEATRQAVEAAKVRLKMPPVLEERVPINDVLAEDKILEGTETTKYVFTDISYSIPHRCLEHHHHHHH | not soluble
MAPRVITLSPANTELAFAAGITPVGVSSYSDYPPQAQKIEQVSTWQGMNLERIVALKPDLVIAWRGGNAERQVDQLASLGIKVMWVDATSIEQIANALRQLAPWSPQPDKAEQAAQSLLDQYAQLKAQYADKPKKRVFLQFGINPPFTSGKESIQNQVLEVCGGENIFKDSRVPWPQVSREQVLARSPQAIVITGGPDQIPKIKQYWGEQLKIPVIPLTSDWFERASPRIILAAQQLCNALSQVDLEHHHHHH | soluble
MAQDWNDKIESAQKMLPLIAQLHNNNNVVVSVFGRLLINVTDIDIVKAHRYSRLATETELSPADTLPVLEALHSINVGPASIDLGRLVELHRSKGGDLTQFLTEELSNVIDTRPA | not soluble
MAQEIELKFIVNHSAVEALRDHLNTLGGEHHDPVQLLNIYYETPDNWLRGHDMGLRIRGENGRYEMTMKVAGRVTGGLHQRPEYNVALSEPTLDLAQLPTEVWPNGELPADLASRVQPLFSTDFYREKWLVAVDGSQIEIALDQGEVKAGEFAEPICELELELLSGDTRAVLKLANQLVSQTGLRQGSLSKAARGYHLAQGNPAREIKPTTILHVAAKADVEQGLEAALELALAQWQYHEELWVRGNDAAKEQVLAAISLVRHTLMLFGGIVPRKASTHLRDLLTQCEATIASAVSAVTAVYSTETAMAKLALTEWLVSKAWQPFLDAKAQGKISDSFKRFADIHLSRHAAELKSVFCQPLGDRYRDQLPRLTRDIDSILLLAGYYDPVVAQAWLENWQGLHHAIATGQRIEIEHFRNEANNQEPFWLHSGKR | soluble
MAQENPLWMRHCAISPDGTTIAFTYKGDIFTVPVSGGKATQITTNPAFDTTPIWSPDSKQIAFASDRMGSMDVFIVSKDGGEPRRLTTFSGGETPVAFTDAGHILFTADIMPSTEDAGFPSNGQFQQIYQIPVSGGRPVMFSSMPMECISINKEGTILYQDKKGYEDYWRKHQKSPIARDIWMLRPGQTPRYEKQTTFIGEDREPVWAPDGKSFYYLSEENGTFNVYQRTPGSDTSKQVTHHKQHPVRFLEHHHHHH | not soluble
MAQMKDNNVSNRATLVLYENRFIPLYRMIKEELIRFVQKKGIKSGMALPGDNELASQFGVSVGTVRRAIAELVSERIVIRQQGRGTFLAPYDTSRMLNSFWHIERRDGVVDVPLVSTHGFSQASATEEVAQKLALQPGDPVFVIKNSMTMQGTPVLLDTIYVPVRTFEGLTREKLSARDATIYDFYREQYGINIVKTIDRVSATVADKDTAKRLGCKLGAPMLRILRVAYSFGDTPIEYRCSLLDSENHEYVDVTGGDTSRYG | not soluble
MAQPKFVVAEIVEMEDHPDSDHLHICKVNVGFADPVQIVCGAPNAALGLKTVAALPGAMMPNGSLIFPGALRGVQSYGMLCSARELELPNAPEVRGIIELSSDLSAGKAFDSETMLEHHHHHH | not soluble
MAQSKPAYKVADIKLADFGRKEIILAENEMPGLMAMRSKYGPSQPLKGARIAGCLHMTIQTAVLIETLTALGAEVQWSSCNIFSTQDHAAAAIAQTGVPVYAWKGETDEEYEWCIEQTIVFKDGQPLNMILDDGGDLTNLVHAKYPQYLAGIRGLSEETTTGVHNLAKMLAKGDLKVPAINVNDSVTKSKFDNLYGIRESLPDGIKRATDVMLAGKVAVVAGYGDVGKGSAASLKAFGSRVIVTEIDPINALQAAMEGYEVTTLEEAAPKANIIVTTTGCKDIVTGKHFELLPNDAIVCNVGHFDCEIDVKWLNTNATKKDTIKPQVDRYTLKNGRHVILLAEGRLVNLGCATGHPSFVMSNSFTNQVLAQVELWTKFGTPQEYKLGLYVLPKTLDEEVAYLHLAQLGVKLTKLSDEQASYLGVPVAGPYKPDHYRY | not soluble
MAQSLPPGDIDFQPRKIVFNAPYNEKQVFQIKLINTSALRIAFGINTYMRKLRVDTLCTPRCGVLDPNEHILLAVSCSAFAFGQVDTTNDRITVEWTNTPEGSDKQFCREWLEGEGMVRRKIILIEYNSTPIAPKPTTSSKPLLQATKLGMWLPIGFAASELYDYEKGVPLDRETCEKNLEKLIKNDRDVDYYEWLNLAQQCRTENHKLMEQMALGMAFTSAMANKQHKKVSRKADKDKITGAIVQNKMFSIETAEIWDRVLTLPNRKWFQISDVVTDGEVSNWSSANLVTHVRALARSVFDKVDEADPHMMCYATSQNACIYVPIDKDFFDGFAEYLIGGFGQEQSRDLKLQVRKLVTEVMGNKLNRVRARYNKMYGKDASEEAAKWMREELDKKDGELKECQLIFSKGSKSSYAIEVHGEEEEDLVKSEVLSGDEDVEME | not soluble
MAQVAIITASDSGIGKECALLLAQQGFDIGITWHSDEEGAKDTAREVVSHGVRAEIVQLDLGNLPEGALALEKLIQRLGRIDVLVNNAGAMTKAPFLDMAFDEWRKIFTVDVDGAFLCSQIAARQMVKQGQGGRIINITSVHEHTPLPDASAYTAAKHALGGLTKAMALELVRHKILVNAVAPGAIATPMNGMDDSDVKPDAEPSIPLRRFGATHEIASLVVWLCSEGANYTTGQSLIVDGGFMLANPQFNPE | soluble
MAQVMYATPDNMLSRFGEQDLTLLTEREDSVPGEINLALLEQALSDASAEIDGYIAGRYVLPLTTVPAVLERNCCDIARYFLYGDKAPEQVEKRYAAVVKFLTAVSKGDISLGLATTGETADQSELVISIESAGSVFGRKSAKGFI | soluble
MARFIARTKLNIDDIKEVDEYKALIPENNQYEELKKAIKEQGFLFPVIVNQNRELIDGYTRLRIARELGLTEIPAEVYETGGREEELDIIASLNLKRRHLTKDELVLLIDKIHEMKKRLKKDNIEEQNSGTGARISAIDKENISKNSVTEESREIREELKKLVPDVQINEDTIRKYLQIKKEVPWLVQYIGDEKKNKIGIRKAYEIYTLLSKKNLLDLDKRIPKTELTKLITDKEGRKILERDDLLQLILDHKMAVSQAINKLKTEEKIKQSKKKSRVKTEDEYAETDEEEEDETEEGQRELDENEEYPLLEEWQKAKEEEKQEAEQQLTPQLNVSPNSNTTQVTLEFSNVLKELSNKGFTKLDFNTDVVIAKINDKYYAILLEALKSLERGSKQYKELAEFLVSNNLAVYDPEEDNYIISWRSLNCS | soluble
MARFNAAFTRIKIMFSRIRGLISCQSNTQTIAPTLSPPSSGHVSFAGIDYPLLPLNHQTPLVFQWFERNPDRFGQNEIPIINTQKNPYLNNIINAAIIEKERIIGIFVDGDFSKGQRKALGKLEQNYRNIKVIYNSDLNYSMYDKKLTTIYLENITKLEAQSASERDEVLLNGVKKSLEDVLKNNPEETLISSHNKDKGHLWFDFYRNLFLLKGSDAFLEAGKPGCHHLQPGGGCIYLDADMLLTDKLGTLYLPDGIAIHVSRKDNHVSLENGIIAVNRSEHPALIKGLEIMHSKPYGDPYNDWLSKGLRHYFDGSHIQDYDAFCDFIEFKHENIIMNTSSLTASSWR | not soluble
MARLSGILADSDIQALIDNNFLKALWPFDAAQIQPASLDLRLGEKAYRIRASFMPGADVRVLDKLERLKLHEFDLRDGAVLETGCVYIVPLLENLALPEILSAIANPKSSTGRLDIFTRVITDNAQEFDKICVGYHGPLYLEISPRTFPILVRTGSRLFQLRFRKGHSYLNEIELHALHRDETLISDDLPNISAGGIGLSINLKGDENGLVGYRGKRHTSVIDIDKHAVANILDFWEPLFDRGQRELILDPDEFYILVSRESVHVPPLYAAEMTPFDPLVGEFRVHYAGFFDPGFGHMEAGGKGARAVLEVRSHEVPFILEHGQIIGRLVYEQMLKRPLALYGEDSGSHYQAQGLKLSKHFR | not soluble
